{"source": "patent US20180142000A1", "about": "(NATIONAL RESEARCH COUNCIL OF CANADA, published 2018)", "binders": {"B1": {"name": "C. jejuni strain 11168 flagella (other)", "chain 1": "GFRINTNVAALNAKANADLNSKSLDASLSRLSSGLRINSAADDASGMAIADSLRSQANTLGQAISNGNDALGILQTADKAMDEQLKILDTIKTKATQAAQDGQSLKTRTMLQADINRLMEELDNIANTTSFNGKQLLSGNFINQEFQIGASSNQTVKATIGATQSSKIGLTRFETGGRISTSGEVQFTLKNYNGIDDFQFQKVVISTSVGTGLGALADEINKNADKTGVRATFTVETRGIAAVRAGATSDTFAINGVKIGKVDYKDGDANGALVAAINSVKDTTGVEASIDANGQLLLTSREGRGIKIDGNIGGGAFINADMKENYGRLSLVKNDGKDILISGSNLSSAGFGATQFISQASVSLRESKGQIDANIADAMGFGSANKGVVLGGYSSVSAYMSSAGSGFSSGSGYSVGSGKNYSTGFANAIAISAASQLSTVYNVSAGSGFSSGSTLSQFATMKTTAFGVKDETAGVTTLKGAMAVMDIAETAITNLDQIRADIGSVQNQVTSTINNITVTQVNVKAAESQIRDVDFAAESANYSKANILAQSGSYAMAQANSVQQNVLRLLQ", "chain 2": "GFRINTNIGALNAHANSVVNARELDKSLSRLSSGLRINSAADDASGMAIADSLRSQAATLGQAINNGNDAIGILQTADKAMDEQLKILDTIKTKATQAAQDGQSLKTRTMLQADINRLMEELDNIANTTSFNGKQLLSGNFINQEFQIGASSNQTIKATIGATQSSKIGLTRFETGGRISSSGEVQFTLKNYNGIDDFQFQKVVISTSVGTGLGALAEEINKSADKTGVRATFTVETRGIAAVRAGTTSDTFAINGVTIGQVAYEDGDGNGALVAAINSVKDTTGVEASIDANGQLLLTSREGRGIKIDGNIGGGAFINADMKENYGRLSLVKNDGKDILISGSNLSSAGFGATQFISQASVSLRESKGRFDANIADAMGFGSANKGVVLGGYSSVSAYMSSAGSGFSSGSGYSVGSGKNYSTGFANAIAISAASQLSTVYNVSAGSGFSSGSTLSQFATMKTTAFGVKDETAGVTTLKGAMAVMDIAETATTNLDQIRADIGSVQNQLQVTINNITVTQVNVKAAESTIRDVDFAAESANFSKYNILAQSGSYAMSQANAVQQNVLKLLQ"}}, "target": "FlagV1P", "experiment": "fluorescence microscopy with FITC-labeled pentabody on whole bacteria", "data": [{"binder": "B1", "values": [{"measurement": "binding result", "result": "no binding"}]}]}
